# In the supplement of paper PMC12764529:
# ± gives the half width of the 95% confidence interval.
# Columns and labels:
# [1] = folding stability dG unfold from trypsin proteolysis; higher = more stable
# Method in brief: (§1)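 Designed mini-proteins (under 80 residues, no cysteine) in a PA-tagged cDNA display construct were digested with trypsin and chymotrypsin. Each protease was used at 11 concentrations (threefold dilutions) plus a no-protease condition, followed by sequencing. K50 was inferred by Bayesian fitting of sequencing counts, and unfolding free energy was derived against a sequence-predicted unfolded-state K50 and a shared folded-state K50, per protease or combined. Only designs with AlphaFold2 dimer inter-PAE above 15 were kept.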
# [2] = folding stability dG unfold from chymotrypsin proteolysis; higher = more stable
# Method in brief: as §1
# [3] = folding stability dG unfold (combined trypsin and chymotrypsin); higher = more stable
# Method in brief: as §1
Sequence,folding stability dG unfold [1],folding stability dG unfold [2],folding stability dG unfold [3]
SAGGSAGGSKLKIPIIRKFKPDEPLPTAEDVKAILEELGLDIKEVKVTYFPEYGYAIAEVEVSSAGGSAGGS [r12_1052_TrMRF],1.57 ± 0.033 kcal/mol,1.24 ± 0.039 kcal/mol,1.41 ± 0.067 kcal/mol
SAGMVRIETYTHPDGTLRLVVYRPETGERAVFEFPLEDPEKFREAVEELAERLREEGFPVEVDIRPTLPSAG [r5_815_TrMRF],3 ± 0.086 kcal/mol,4.296 ± 0.023 kcal/mol,3.97 ± 0.049 kcal/mol
SAGGSAGGSEVKVLVYPPKGPPRLFADDVPIETLVAQFTAEDPPEPLVLVTKEEAEKLGFPLESAGGSAGGS [r12_379_TrMRF],0.435 ± 0.047 kcal/mol,0.15 ± 0.14 kcal/mol,0.27 ± 0.22 kcal/mol
SAGGDPGWVRVTAEIELDGKNLKIEWWYMPNGNYYYNIEFPNGKEIEIMIPMEPGDVEEFAEYIAKKLSAGG [r13_296_TrROS],2.32 ± 0.069 kcal/mol,2.838 ± 0.028 kcal/mol,2.66 ± 0.11 kcal/mol
SAGGSAGGSAGSVTVSSTTTTLTDSMRVITETFTSPDLVKVTFVPTSNPEDVTVTTLPSASAGGSAGGSAGG [r11_1046_JUSTAS],-0.417 ± 0.093 kcal/mol,1.04 ± 0.026 kcal/mol,0.643 ± 0.092 kcal/mol
SPPVRARIRVERLPDGSVRVELEVEFPDGVRVRIETLEAPPETGVVRVRARFFPPDGSSVEFEFTFPLLRSA [r9_1179_TrMRF],3.74 ± 0.086 kcal/mol,4.96 ± 0.12 kcal/mol,4.52 ± 0.11 kcal/mol
SAGGMYKARIEVKNPEEVKKKIKELGLEFEIETRPDGSVDIYFPPEYVDKLIKAFPGEKIEIEPIPDESAGG [r13_261_TrMRF],2.94 ± 0.15 kcal/mol,3.38 ± 0.11 kcal/mol,3.29 ± 0.14 kcal/mol
SAGGSANNWKPIGEFPFRHPDGWRVTVPIWRDPGEGNIKINVKYQGPNGPPSKQMKEWAKKLLDEISAGGSA [r15_529_TrROS],0.936 ± 0.15 kcal/mol,0.654 ± 0.32 kcal/mol,0.866 ± 0.31 kcal/mol
SAGGSAGGSAGPIIPPNFEVVDVFETETSYYILVKNPETGRYYVARYDPLTGKIEVFEVSSAGGSAGGSAGG [r11_896_TrMRF],3.46 ± 0.1 kcal/mol,4.75 ± 0.065 kcal/mol,4.52 ± 0.1 kcal/mol
SAGGSAGGKEFEIEKVEITVENGTITIRMIVRDKETNEYYEVEKTITFDPETKELHVEIKVKKVSAGGSAGG [r6_604_TrROS_Hall],4.19 ± 0.13 kcal/mol,3.23 ± 0.1 kcal/mol,3.91 ± 0.16 kcal/mol
SAGGSAGGSAGGKKTLVIEFDLEPGGLTAEEIEELLRPYTGKEVRLETHPDGKPVAVVEGSAGGSAGGSAGG [r7_330_TrMRF],-0.488 ± 0.1 kcal/mol,-0.616 ± 0.44 kcal/mol,-0.393 ± 0.16 kcal/mol
SAGGKLTLELEFELEDGLRVRLRVEVDEDGELRVTLEVEPEPPPPPIRVVKNEDGSEYVYRNGKLYKLSAGG [r13_151_TrROS_Hall],3.55 ± 0.16 kcal/mol,5.18 ± 0.45 kcal/mol,4.16 ± 0.84 kcal/mol
SAGGSAGGSAMIEISEEELEKLLAETPEEEAKEVKIERIPDIGLINVTIPSGKVIKVKIKESAGGSAGGSAG [r3_291_JUSTAS],-0.241 ± 0.11 kcal/mol,1.43 ± 0.077 kcal/mol,0.911 ± 0.086 kcal/mol
SAGGSAGGGMNATPKKIKVTITITDPSGNKTTVTREFDSEEEAEKFVKELLPPNRSYTVTYEPESAGGSAGG [r6_290_JUSTAS],2.94 ± 0.074 kcal/mol,2.075 ± 0.017 kcal/mol,2.56 ± 0.068 kcal/mol
SAGGKEYTAKVVEIKKVGNKIFIKIKLSDGRELTIEIKTPEEAKKLKVGDTVKITVNEDGSLTIEVLSAGGS [r16_2_TrROS_Hall],4.22 ± 0.15 kcal/mol,4.33 ± 0.064 kcal/mol,4.29 ± 0.074 kcal/mol
SAGGKKKIKIIEKKKINGKTILKIEVDGKKIIIIKTPNKVYIFVIDKNGKKKVIEMSPEEALKKLIEKSAGG [r13_98_TrROS_Hall],2.08 ± 0.075 kcal/mol,3.95 ± 0.042 kcal/mol,3.59 ± 0.13 kcal/mol
SAGGMKTFTLENPPLAPPDRPLGGSTLKLPDGTVLVRINLPSGETILLPSYEELEKLKASGEPVSVTASSAG [r5_42_JUSTAS],0.285 ± 0.055 kcal/mol,0.254 ± 0.15 kcal/mol,0.348 ± 0.12 kcal/mol
SAGGMVFTITVRNPDGTVVELPFDVSDVTITPKNGDLYITVAGGKVLTLKTDEVLDIDPAAIAAANAASAGG [r13_925_JUSTAS],0.901 ± 0.052 kcal/mol,1.26 ± 0.14 kcal/mol,1.13 ± 0.16 kcal/mol
SAGGSAGGSAGGETVVLVTYDKETKTLTVQTFELENGELKTTTKTVTLTDEQLESLPPASAGGSAGGSAGGS [r10_291_TrROS_Hall],1.39 ± 0.07 kcal/mol,1.99 ± 0.083 kcal/mol,1.87 ± 0.18 kcal/mol
SAGGPMRRVKVEIKDPDGGKIEIDDVYVPDNSVWAKIFLPDLGREIPFPFDTPDQAVEWIKDFVLQLSAGGS [r16_736_TrROS],0.482 ± 0.099 kcal/mol,1.15 ± 0.21 kcal/mol,0.929 ± 0.29 kcal/mol
SAGGSAGGSMSTVSTVTHPDGTPLTVTTTPLPDGTVLATYSAPDGTVVATFDVSTGTTVVVPLSAGGSAGGS [r20_159_JUSTAS],1.39 ± 0.067 kcal/mol,1.5 ± 0.079 kcal/mol,1.44 ± 0.074 kcal/mol
